# Assay results published in patent US20150086555A1 (THERACLONE SCIENCES, published 2015).
# Legend:
# [1] = target: recombinant soluble homotrimeric HA of A/Solomon Islands/3/06 (H1N1) (Influenza A virus A/Solomon …); assay: HA microarray, BCC supernatant
# [2] = target: recombinant soluble homotrimeric HA of A/Wisconsin/67/05 (H3N2) (Influenza A virus …); assay: HA microarray, BCC supernatant
# [3] = target: recombinant soluble homotrimeric HA of A/California/4/09 (H1N1) (Influenza A virus …); assay: HA microarray, BCC supernatant
# [4] = target: recombinant soluble homotrimeric HA of A/chicken/Vietnam/NCVD-016/08 (H5N1) (Influenza A virus …); assay: HA microarray, BCC supernatant
# [5] = target: recombinant soluble homotrimeric HA of A/Netherlands/219/03 (H7N7) (Influenza A virus …); assay: HA microarray, BCC supernatant
# [6] = target: recombinant soluble homotrimeric HA of A/northern shoveler/California/HKWF115/07 (H6) (Influenza A virus A/northern …); assay: HA microarray, BCC supernatant
# [7] = target: recombinant soluble homotrimeric HA of A/swine/Ontario/01911-2/99 (H4N6) (Influenza A virus …); assay: HA microarray, BCC supernatant
# [8] = target: recombinant soluble homotrimeric HA of A/duck/Yangzhou/02/05 (H8N4) (Influenza A virus …); assay: HA microarray, BCC supernatant
# [9] = target: recombinant soluble homotrimeric HA of A/Hong Kong/2108/03 (H9N2) (Influenza A virus A/HK/2108/2003(H9N2)); assay: HA microarray, BCC supernatant
# [10] = target: recombinant soluble homotrimeric HA of A/Japan/305/57 (H2N2) (Influenza A virus A/Japan/305/1957(H2N2)); assay: HA microarray, BCC supernatant
# [11] = target: recombinant soluble homotrimeric HA of A/Vietnam/1203/04 (H5N1) (Influenza A virus …); assay: HA microarray, BCC supernatant
# [12] = target: recombinant soluble homotrimeric HA of A/Indonesia/5/05 (H5N1) (Influenza A virus …); assay: HA microarray, BCC supernatant
# [13] = target: recombinant soluble homotrimeric HA of A/Anhui/1/05 (H5N1) (Influenza A virus A/Anhui/1/2005(H5N1)); assay: HA microarray, BCC supernatant
# [14] = target: hemagglutinin on live influenza A virus, A/California/4/09 H1N1 (Influenza A virus …); assay: cell-based or functional assay
# [15] = target: hemagglutinin on whole influenza A virions, A/Solomon Islands/3/06 H1N1 (Influenza A virus A/Solomon …); assay: cell-based or functional assay
# [16] = target: hemagglutinin on whole influenza A virions, A/Wisconsin/67/05 H3N2 (Influenza A virus …); assay: cell-based or functional assay
# [17] = target: recombinant trimeric HA of H1N1 A/California/04/09 (Influenza A virus A/California/04/2009 …)
binder,measurement,setting,value
"TCN-556 (5089_K12) (antibody, V domains shown) VH: QVQLVQSGAEVKKPGASVKVSCKASGYTFIGYDMHWVRQAPGQGLEWMGWINAKRGGTNYAQKFQGRVTMTRDTSISTAYMELNSLRSDDTAVYYCARGVGSRTTIFGVLNPEFDYWGQGTLVTVSS VL: QSALTQPPSASGSPGQSVTISCTGSSSDVGGYDYVSWYQQHPGKAPKLLIYEVTKRPSGVPDRFSGSKSGNTASLTVSGLQAEDEADYYCSSYAGNYNHVFGPGTKVTVL",Trimeric HA Binding: RLU,[1],2850 RLU
same,Trimeric HA Binding: RLU,[2],9320 RLU
same,Trimeric HA Binding: RLU,[3],14600 RLU
same,Trimeric HA Binding: RLU,[4],8800 RLU
same,Trimeric HA Binding: RLU,[5],10600 RLU
same,Trimeric HA Binding: RLU,[6],11900 RLU
same,Trimeric HA Binding: RLU,[7],5600 RLU
same,Trimeric HA Binding: RLU,[8],16900 RLU
same,Trimeric HA Binding: RLU,[9],7410 RLU
same,Trimeric HA Binding: RLU,[10],5610 RLU
same,Trimeric HA Binding: RLU,[11],13800 RLU
same,Trimeric HA Binding: RLU,[12],8450 RLU
same,Trimeric HA Binding: RLU,[13],3700 RLU
"TCN-551 (5243_D01) (antibody, V domains shown) VH: EVQLVQSGSEVKKPGESLKISCKGSGYSFSNYWIGWVRHMPGKGLEWMGIIYPGDSDTRYSPSFQGQVTMSADKSSSTVYLQWSSLKASDTAIYYCARRGGHSFGYGSGGDTHSEFDSWGQGTLVTVSS VL: QSVLTQSPSVSAAPGQKVTISCSGSDSNIGDYFVCWYQHLPGKPPQLLIYENNKRPSGIPDRFSGSKSGTSATLGITGIQTGDEADYYCATWDGSLSAWVFGGGTKLTVL",% Neutralization,[14],74%
"TCN-549 (5092_P04) (antibody, V domains shown) VH: QVQLVQSGAEVKKPGASVKVSCKASGYTFTGYYMHWVRQAPGQGLEWMGWINPNSGDTNYAQKFQGRVTMTRDTSITTAYMELSSLRSDDTAVYYCARDSPYSSSWSFFDYWGQGPLVTVSS VL: not shown",% Neutralization,[15],0%
same,% Neutralization,[16],100%
same,% Neutralization,[14],0%
"TCN-547 (5092_F11) (antibody, V domains shown) VH: QVQLQESGPGLVKPSQTLSLTCTVSGDSISSVDHYWSWIRQHPVKGLEWIGFMYYSASTYYNPSLKSRVTISTDTSKNQFSLRLSSVTAADTAVYYCARGTCAGDCSLHYYYYGLDVWGQGRTVTVSS VL: DIQMTQSPSSLSASVGDRVTITCRASQSISSYLNWYQHKPGKAPKVLMYAVSILQSGVPSRFSGSGSGADFTLTISSLQPEDFATYYCQQSYSSPLTFGGGTKVEIK",% Neutralization,[15],0%
same,% Neutralization,[16],88%
same,% Neutralization,[14],0%
"Fab fragment of TCN-533 (5256_A17a) (Fab, V domains shown) VH: QVQLVQSGADVKKPGSSVTVSCKASGGSFSNYGINWVRQAPGQGLEWMGGIIPLINAPNYAPKFQGRVTITADMFSNIVSLQLTSLRTDDTAVYYCARRKMTTAIDYWGQGTLVTVSS VL: QPVLTQPPSASASLGASVTLTCTLSSAYSNYKVDWYQQRPGKGPRFVMRVGTGGIVGSKGDGIPDRFSVLGSGLNRYLTIKNIQEEDESDYHCGADHGSGSNFVSPYVFGGGTKLTVL",Kd,[17],0.129 nM
same,koff,[17],8.2e-05 s⁻¹
same,kon,[17],635000 M⁻¹ s⁻¹
"TCN-555 (5246_L16) (antibody, V domains shown) VH: QVQLVQSGAEVKRPGSSVKVSCTASGGIFRKNAISWVRQAPGQGLEWMGGIIAVFNTANYAQKFQNRVKITADESGNTAYMELSSLTSDDTAVYYCASHPKYFYGSGSYPDFWGQGTLVTVSS VL: QSALTQPRSVSGSPGQSITISCTGGSSDIGASNSVSWYQQHPGKAPKLVIFDVTERPSGVPHRFSGSKSGNTASLTVSGLQPDDEADYFCCAYGGKYLVVFGGGTKVTVL",% Neutralization,[14],89%
"TCN-558 (5248_H10b) (antibody, V domains shown) VH: QVQLVQSGSEVKKPGTSVKVSCTASGSVFTNYGISWVRQAPGQGLEWMGGIIPLFGAAKYAQKFQGRVTITADESTKTVYMELSRLTSKDTAIYFCAKAPRVYEYYFDQWGQGTPVTVSS VL: EIVMTQFPATLSVSPGERVTLSCRASQSVSNNLAWYQQKPGQPPRLLIYDASTRATGVPAKFSGTGSGTEFTLSISSLQSEDFAVYYCQQYHNWPPSYSFGLGTKLEIK",% Neutralization,[14],96%
"TCN-548 (5092_P01) (antibody, V domains shown) VH: QVQLQESGPGLVKPSETLSLTCTVSSGPMSDYYWSWIRQPPGKGLEWIGHVSVSHGGRTKSNPSVMSRVTISVETSKNQFSLKLTSVTAADTAVYYCARLNYYDRSGYHSPDGPSNNWFDPWGQGTLVTVSS VL: not shown",% Neutralization,[15],0%
same,% Neutralization,[16],96%
same,% Neutralization,[14],0%
"TCN-554 (5277_M05) (antibody, V domains shown) VH: QVQLVQSGADLKKPGASVKVSCKASGYTFTDYYIHWVRQAPGQGLEWMGWINPESGDTKYAQKFQGRVTMTRDTSITTAYMELGRLRSDDTAVYYCARDVSTTWSWFAPWGQGTLVTVSS VL: DIVMTQSPDSLAVSLGERATINCRSSQSIFHNSNNENYLAWYQQKPGQPPKLLIYWASTRESGVPDRFSGSGSGTDFTLTISSLQAEDVAVYFCQQYYNAPLTFGGGTKVEIK",% Neutralization,[14],0%
"TCN-553 (5261_C18) (antibody, V domains shown) VH: QVQVVQSGTEVKKPGSSVKVSCQTSGGRFMSYAITWVRQAPGQGLEWMGGIVPVFGTANYAQKFQGRVTITTDDSTRTAYMELSSLRSEDTAVYYCGFRYGSGYGFDSWGQGTLVTVSS VL: EIVLTQSPGTLSLSPGERATLSCRASQSVSSSYLAWYQKKPGQAPRLLIYGASTRATGIPDRFTGSGSGTDFTLSISRLEPEDFAVYYCQHFGTSVFTFGGGTKVEIK",% Neutralization,[14],83%
"TCN-560 (5084_P10) (antibody, V domains shown) VH: EVQLVESGGGLVQPGGSLRLSCAASGFIFRNYWMSWVRQAPGKGLEWVANIKQDGREKYYVDSLRGRVNISRDNAENSLYLHMNSLRVEDTAVYFCARARMVVVTGDGFDVWGHGTMVTVSS VL: DIQMTQSPSSLSASVGDRVTITCRASQNIKRYFNWYQQKPGKAPKLLIYAASNLENGVPSRFSGSGSGTDFTLTISSLQPEDFATYYCQQSFSKSWTFGQGTNVDIK",Trimeric HA Binding: RLU,[1],38800 RLU
same,Trimeric HA Binding: RLU,[2],49100 RLU
same,Trimeric HA Binding: RLU,[3],49200 RLU
same,Trimeric HA Binding: RLU,[4],46000 RLU
same,Trimeric HA Binding: RLU,[5],48500 RLU
same,Trimeric HA Binding: RLU,[6],42300 RLU
same,Trimeric HA Binding: RLU,[7],41600 RLU
same,Trimeric HA Binding: RLU,[8],44700 RLU
same,Trimeric HA Binding: RLU,[9],49400 RLU
same,Trimeric HA Binding: RLU,[10],46700 RLU
same,Trimeric HA Binding: RLU,[11],44000 RLU
same,Trimeric HA Binding: RLU,[12],35900 RLU
same,Trimeric HA Binding: RLU,[13],49100 RLU
"TCN-552 (5249_I23) (antibody, V domains shown) VH: QVQVVQSGAEVKKPGSSVRVSCQASGGTFMNYAIIWVRRAPGQGLEWMGGIIPVFPTPNYAQMFQGRVTISTDESRSTSFLELTNLRYEDTAVYYCARRIYHGGNSGFDFWGQGTLVTVSS VL: EIVLTQSPATLSLSPGERATLSCRASQSVGNYLAWYQQKPGQAPRLLIYDSSNRAPGIPARFSGSGSGTDFTLTISSLAPEDFAVYYCQQRSKWPPMYSFGHGTKLEIK",% Neutralization,[14],81%
"TCN-557 (5081_A04) (antibody, V domains shown) VH: QVQLVQSGAEVKKPGASVKVSCKASGHTFTGYYIHWVRQAPGQGLEWMGWINPDSGATSSAQNFQGRVTMTGDTSSSTAYMELSRLSFDDTAVYYCARVLFTSPFDFWGEGTLVTVSS VL: QAVVTQEPSLAVSPGGTVTLTCGSSTGAVTRGHYPYWFQQKPGQAPRALIYDSAGNRHSWTPARFSGSLLGGKAALTLSGAQPEDEAEYYCLLSYSGVWVFGGGTKLTVL",% Neutralization,[15],7%
same,% Neutralization,[16],0%
same,% Neutralization,[14],10%
